Reference: paper doi:10.1101/112029

Biological target: untagged murine saposin A (SapA), wild type (murine)
Assay: crystal structure

stoichiometry N: 2
Substance: untagged murine saposin A (SapA), wild type (natural protein)
